Laboratory results from PMC12607630, “ZapC crosslinks FtsZ filaments through a dual-binding mechanism modulated by the intrinsically disordered linker of FtsZ in Escherichia coli” (mBio, 2025).
Values joined by “and” are separate entries in the source; they are usually repeats but may differ in a detail not shown here. Equal values may be shown once.

Target: T1, FtsZ 1-330 (untagged) (Escherichia coli, UniProt P0A9A6 1-330)
T1 construct: FtsZ of Escherichia coli, residues 1-330; lacks most of the CTL and the CTP; Primers BsaI-out-F and 330XbaI-out-R; forward primer starts at codon 2; source: E. coli BL21(DE3), plasmid pLY340, purified (Ni-NTA); 6×His-SUMO tag removed with Ulp1; not shown: 6×His-SUMO, N-terminal, cleaved
T1 sequence (looked up): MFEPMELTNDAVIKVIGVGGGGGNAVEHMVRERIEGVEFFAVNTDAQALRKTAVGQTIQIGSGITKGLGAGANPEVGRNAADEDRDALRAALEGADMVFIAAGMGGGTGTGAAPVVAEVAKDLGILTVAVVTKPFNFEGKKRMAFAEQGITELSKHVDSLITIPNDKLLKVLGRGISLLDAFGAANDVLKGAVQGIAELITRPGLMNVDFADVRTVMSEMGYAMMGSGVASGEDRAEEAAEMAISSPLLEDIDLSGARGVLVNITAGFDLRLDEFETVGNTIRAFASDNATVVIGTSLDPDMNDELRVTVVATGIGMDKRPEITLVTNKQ
Assay: BLI; 6×His-ZapC or its mutants (0.5 µM) loaded on Ni-NTA biosensors, untagged FtsZ or its variants in solution; Octet-Red96, 30°C, 1× Pol buffer (50 mM HEPES-NaOH pH 6.8, 50 mM KCl, 10 mM MgCl2); apparent Kd from the signal at the end of association against concentration, one-site fit; three repeats with mean (X) and SD
Details: both partners purified

- Kd: 1610 nM and 1810 nM and 1590 nM and 1670 nM
B1: 6×His-ZapC (natural protein)
chain: not shown
notes: ZapC, FtsZ-associated protein of Escherichia coli; Construction of pSD323 is not described; also called His-tagged ZapC; source: E. coli, plasmid pSD323 (pQE80, Plac::6×His-ZapC), purified (Ni-NTA); not shown: His6, N-terminal, kept
